Key:
Assay in all cases: GST pull-down, 35S-Met protein vs GST fusion; - means no detectable binding (footnote a)
GST-CRN-1 = target: T1, GST-CRN-1 (C. elegans, UniProt Q9N3T2 21-382)
T1 construct: also called CRN-1 GST-fusion protein; not shown: glutathione S-transferase tag encoded by vector pGEX4T-2
T1 sequence (looked up): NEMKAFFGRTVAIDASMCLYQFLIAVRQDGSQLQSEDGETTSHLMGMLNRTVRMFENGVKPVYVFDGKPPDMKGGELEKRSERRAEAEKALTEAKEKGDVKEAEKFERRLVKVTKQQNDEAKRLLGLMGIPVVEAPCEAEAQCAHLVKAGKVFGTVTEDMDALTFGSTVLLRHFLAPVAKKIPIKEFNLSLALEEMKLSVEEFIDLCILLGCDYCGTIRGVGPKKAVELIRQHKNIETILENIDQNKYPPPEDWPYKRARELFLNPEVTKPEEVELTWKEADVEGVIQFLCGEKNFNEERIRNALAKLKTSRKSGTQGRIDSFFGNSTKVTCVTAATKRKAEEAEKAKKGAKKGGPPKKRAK
Description: (§1) GST fusion protein pull-down assays were performed as described in J. Parrish, H. Metters, L. Chen, D. Xue, Proc. Natl. Acad. Sci. U.S.A. 97, 11916 (2000). Purified GST or GST-fusion proteins (5 μg each) immobilized on glutathione sepharose beads were incubated with ³⁵S-Methionine labeled proteins at 4° C. for 2 hours. The beads were washed extensively and the bound proteins were resolved on a 12% SDS-PAGE and visualized by autoradiography. [0103] cDNAs corresponding to the ORFs were cloned into the pPD129.36 vector via its Nhe I and Xho I sites or the Xho I site alone. Full-length cDNAs were subcloned into the pGEX4T-2 vector for generating GST fusion proteins and for further protein purification and into the pcDNA3.1 vector for in vitro transcription/translation experiments.
(§2) ^aInteractions were evaluated relative to background binding of ³⁵S-Methionine labeled Luciferase to GST-fusion proteins and ³⁵S-Methionine labeled proteins to GST. “−” indicates no detectable binding, “+” indicates an interaction consistently observed above background levels, and “++” indicates a strong interaction. ^bBecause ³⁵S-Methionine labeled CRN-1 binds GST tightly, it was not possible to evaluate interactions between ³⁵S-CRN-1 and various GST-fusion proteins. ND, not determined.

GST-CRN-6 = target: T2, GST-CRN-6 (C. elegans, UniProt P08515 1-218 = GST; P34508 1-373)
T2 construct: Two crn-6 cDNAs (700 bp and 1.1 kb) were isolated; the longer one made the GST fusion; also called CRN-6 GST-fusion protein
T2 sequence (P08515 1-218, tags or fused parts left off): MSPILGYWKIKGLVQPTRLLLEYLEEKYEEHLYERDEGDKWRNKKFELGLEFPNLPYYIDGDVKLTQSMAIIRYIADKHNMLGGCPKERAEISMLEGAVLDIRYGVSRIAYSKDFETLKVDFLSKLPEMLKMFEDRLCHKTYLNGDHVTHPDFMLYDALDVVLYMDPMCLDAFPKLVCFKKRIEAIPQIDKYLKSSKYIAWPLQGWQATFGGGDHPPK
Description: as §1, §2

[1] = target: T3, GST (glutathione-S transferase alone) (UniProt P08515 1-218 = GST)
T3 construct: Purified GST used as negative control bait on glutathione sepharose beads; also called OST
T3 sequence (P08515 whole entry): as the sequence (P08515 1-218, tags or fused parts left off) above
Description: as §1, §2

GST-NUC-1 = target: T4, GST-NUC-1 (C. elegans, UniProt Q17778 22-375)
T4 construct: also called NUC-1 GST-fusion protein; not shown: glutathione S-transferase tag encoded by vector pGEX4T-2
T4 sequence (looked up): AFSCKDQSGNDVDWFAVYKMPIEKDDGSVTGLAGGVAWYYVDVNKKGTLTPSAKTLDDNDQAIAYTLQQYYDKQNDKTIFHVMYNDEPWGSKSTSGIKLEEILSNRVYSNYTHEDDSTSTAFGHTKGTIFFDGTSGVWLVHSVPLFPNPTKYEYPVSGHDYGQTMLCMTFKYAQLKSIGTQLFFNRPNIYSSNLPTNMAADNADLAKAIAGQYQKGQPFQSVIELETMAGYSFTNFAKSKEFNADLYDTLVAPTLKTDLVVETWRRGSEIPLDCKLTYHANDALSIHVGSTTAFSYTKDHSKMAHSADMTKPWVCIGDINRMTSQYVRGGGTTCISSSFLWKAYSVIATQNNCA
Description: as §1, §2

GST-CRN-4 = target: T5, GST-CRN-4 (C. elegans, UniProt Q10905 1-298)
T5 construct: also called CRN-4 GST-fusion protein; not shown: glutathione S-transferase tag encoded by vector pGEX4T-2
T5 sequence (looked up): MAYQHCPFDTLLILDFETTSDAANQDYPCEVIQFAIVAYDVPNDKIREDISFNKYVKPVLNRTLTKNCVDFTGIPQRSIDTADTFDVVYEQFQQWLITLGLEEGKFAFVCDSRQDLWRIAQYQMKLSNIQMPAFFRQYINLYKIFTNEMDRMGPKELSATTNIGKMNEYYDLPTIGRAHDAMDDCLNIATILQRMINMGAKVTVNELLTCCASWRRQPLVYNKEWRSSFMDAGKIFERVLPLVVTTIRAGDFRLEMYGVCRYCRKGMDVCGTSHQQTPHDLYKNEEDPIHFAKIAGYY
Description: as §1, §2

Measured: binding result

B1: ^35S-Methionine labeled CRN-2 (enzyme, C. elegans)
chain: MALYELVDIGANLGHPSYQKDLNDVLDRAKQAGLSKIMVTGTSEKISHECADLVEKYPGFLYFTAGVHPHDAKDWNDGTLEALKKLQENPSCVAVGECGLDFNRNFSPQDVQKEVFAKQVDMAVKLQKPLFIHEREAHEDMVKILTAAGPSLPPAVIHCFTGTVVEAKKYLEMGFYIGLTGFLWKDRSDNGVQAGLRSGEIPIEKLVLETDAPYMYPKINDKKIPKEIKSLITPETEALHNFSSFNRNEPCSLAAVCELVAAFAGRDPKEVAKITTENAKKVYKLE
no binding: all assays above
